Tests used:
[1] = molecular target: GODZILLA (RNF167) on Ba/F3 cells (mouse, UniProt Q91XF4); assay: flow cytometry, surface staining of Ba/F3 cells (mouse by legend paragraph 54, sheet prints HUMAN) with streptavidin-APC tetramerized nanobody, titration up to 200 nM; control BIOTIN
[2] = molecular target: T1, extracellular domain (ECD) of human GRAIL (RNF128) (human, UniProt Q8TEB7 39-207, limits assumed); assay: SPR (Biacore), ligand hRNF128 ECD (GRAIL), analyte GODZILLA-A5 [CONT. 3]
T1 construct: extracellular domain; also called GRAIL ECD
T1 sequence (looked up): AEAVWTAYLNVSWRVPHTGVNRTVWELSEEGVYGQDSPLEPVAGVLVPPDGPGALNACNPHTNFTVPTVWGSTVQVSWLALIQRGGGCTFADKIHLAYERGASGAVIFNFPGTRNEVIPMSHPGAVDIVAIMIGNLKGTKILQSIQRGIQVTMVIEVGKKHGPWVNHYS

[3] = molecular target: T2, extracellular domain (ECD) of human GODZILLA (RNF167) (human, UniProt Q9H6Y7 25-173, limits assumed); assay: SPR (Biacore), titration at equilibrium, nanobody on ECD
T2 construct: extracellular domain; also called GODZILLA ECD

binding result [1]: binds
Kd [3]: 3 nM
B1: GODZILLA (RNF167) VHH of SEQ ID NO: 9 (VHH)
VHH: QVQLQESGGGLVQAGGSLRLSCAASGSIFRLWYMGWYRQAPGKEREFVASIGIGATTNYADSVKGRFTISRDNAKNTVYLQMNSLKPEDTAVYYCAVFGWAYSGYHDDFLYWGQGTQVTVSS
notes: also called A5; GODZILLA-A5
binding result [2]: no binding (tested: 1000 (unit not printed))

Reference: patent publication US20240239891A1 (Stanford University, published 2024)
